What was measured:
Assay in all cases: flow cytometry on cells
[1] = target: full-length MERS-CoV S, cell surface-expressed (MERS-CoV, strain , UniProt K9N5Q8)
[2] = target: full-length S of endemic HCoV NL63, cell surface-expressed (Human coronavirus NL63, strain not …, UniProt Q6Q1S2)
[3] = target: full-length S of bat CoV SHC014, cell surface-expressed (Bat SARS-like coronavirus RsSHC014, UniProt U5WLK5)
[4] = target: full-length SARS-CoV S, cell surface-expressed (SARS-CoV, strain , UniProt P59594)
[5] = target: full-length SARS-CoV-2 S (WT), cell surface-expressed (SARS-CoV-2, ancestral (Wuhan-Hu-1), UniProt P0DTC2)
[6] = target: full-length S of endemic HCoV 229E, cell surface-expressed (Human coronavirus 229E, strain not …, UniProt P15423)
[7] = target: full-length S of endemic HCoV OC43, cell surface-expressed (Human coronavirus OC43, strain not …, UniProt P36334)

Binder | binding result [1] | binding result [2] | binding result [3] | binding result [4] | binding result [5] | binding result [6] | binding result [7]
COVA1-07 (antibody, V domains shown) VH: QVQLVESGAEVKKPGSSVKVSCKASGGTLSSYAITWVRQAPGQGLEWVGGIIPIFGTANYAQKFQGRVTITADESTSTAYMELSSLRSEDTAVYYCARVGAYDSSGYSNDYWGQGTLVTVSS VL: DIQLTQSPATLSLSPGERATLSCRASQSVSSYLAWYQQKPGQAPRLLIYDASNRATGIPARFSGSGSGTDFTLTISSLEPEDFAVYYCQQRSNWPPRVTFGGGTKVEIK | no binding (tested: 50 μg/mL) | no binding (tested: 50 μg/mL) | binds | binds | binds | no binding (tested: 50 μg/mL) | no binding (tested: 50 μg/mL)
COVA2-18 (antibody, V domains shown) VH: EVQLVQSGAEVKKPGSSVKVSCKASGGTFSSYAISWVRQAPGQGLEWMGGIIPIFGTTNYAQKFQGRVTITTDESTSTAYMELSSLRSEDTAVYYCARVYSYDSSGYYLEYWGQGTRVTVSS VL: EIVLTQSPATLSLSPGERATLSCRASQSVSSYLAWYQQKPGQAPRLLIYDASNRATGIPARFSGSGSGTDFTLTISSLEPEDFAVYYCQQRSNWPPSITFGQGTRLEIK | no binding (tested: 50 μg/mL) | no binding (tested: 50 μg/mL) | binds | binds | binds | no binding (tested: 50 μg/mL) | no binding (tested: 50 μg/mL)
COVA2-14 (antibody, V domains shown) VH: QVQLVQSGAEVKKPGSSVKVSCKASGGTFSSYAIIWVRQAPGQGLEWMGGIIPIFGTANYAQKFQGRVTITTDESTSTAYMELSSLRSEDTAVYYCARVRYYDSSGYYEDYWGQGTLVTVSS VL: EIVLTQSPATLSLSPGERATLSCRASQSVSSYLAWYQQEPGQAPRLLIYDASNRATGIPARFSGSGSGTDFTLTISSLEPEDFAVYYCQQRSNWPPMYTFGQGTKVEIK | no binding (tested: 50 μg/mL) | no binding (tested: 50 μg/mL) | binds | binds | binds | no binding (tested: 50 μg/mL) | no binding (tested: 50 μg/mL)
